Source: patent US11324803B2, “Methods and compositions for treatment of Gaucher Disease via modulation of C5a receptor” (Children's Hospital Medical Center, priority 2015, dated 2022)

Experiments:
[1] = tested on: C5a-induced effector functions; conditions: cited from earlier work
C5aR1 = target: T1, C5aR1 (Mus musculus, UniProt P30993); assay: C5aR antagonist A8^Δ71-73 (C5aRA) i.p. treatment of Gaucher disease-prone 9V/null mice; assay type: in vivo; conditions: for pro-inflammatory cytokine (and chemokine) production: DCs and T cells of C5aRA-treated 9V/null mice
T1 construct: endogenous in cells; host or cells: WT and 9V/null mice (mixed FVB/C57BL 6J/129SvEvBrd background), in vivo
T1 sequence (P30993 1-351): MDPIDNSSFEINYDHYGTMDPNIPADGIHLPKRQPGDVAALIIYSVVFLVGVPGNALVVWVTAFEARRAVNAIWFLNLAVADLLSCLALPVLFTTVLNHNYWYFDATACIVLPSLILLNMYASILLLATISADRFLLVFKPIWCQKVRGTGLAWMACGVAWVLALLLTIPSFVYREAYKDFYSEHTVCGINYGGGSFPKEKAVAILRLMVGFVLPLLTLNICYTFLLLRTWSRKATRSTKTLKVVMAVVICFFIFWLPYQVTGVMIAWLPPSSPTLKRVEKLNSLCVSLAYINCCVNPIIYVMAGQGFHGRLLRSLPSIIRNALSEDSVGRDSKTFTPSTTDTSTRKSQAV
From the text: Sera from human patients with Gaucher disease (n=10) and healthy volunteers (n=15) were from the freezer and de-identified. Human patients with Gaucher disease were diagnosed at Cincinnati Children's Hospital Medical Center (CCHMC). […] The study was approved by the ethics committee at CCHMC. In vivo C5aR1 deficiency or blockade in 9V/null mice and in a CBE-induced mouse model of Gaucher disease. To assess the impact of genetic or pharmacological targeting of C5aR1 on the inflammatory response in Gaucher disease, WT (n=10) and C5aR1^−/− mice (n=10) were treated with conduritol B epoxide (CBE), which is an irreversible inhibitor of acid β-glucosidase^24. More specifically, both mouse strains were injected intraperitoneally (i.p.) with 100 mg CBE/kg body weight or vehicle (PBS)/day for up to 60 days, which was the termination point of these experiments. After 60 days of the indicated treatment with CBE, immune cells (MΦs, DCs, and T cells) were purified from lung of these mouse strains and used for measurement of GC, costimulatory molecules, and several of the pro-inflammatory cytokines. In additional experiments, WT (n=15) or 9V/null mice (n=15) were injected with 100 μl of the C5aR antagonist A8^Δ71-73 (i.p. 0.5 mg/kg) or vehicle (100 μl, PBS) on five consecutive days. Five days after the final C5aRA treatment, liver, spleen and lung were separated and measured for GC accumulation. Further, DCs and CD4^+ T cells were purified from the lung of the indicated mouse strains and measured for costimulatory molecule expression and the production of pro-inflammatory cytokines. Preparation of tissue cells. Liver, spleen, lung and BM were harvested aseptically. Single cell suspensions from liver and lung were obtained from minced pieces that were treated with Liberase Cl (0.5 mg/mL) and DNase (0.5 mg/mL) in RPMI (45 min, 37° C.). Single cell suspensions from spleen were obtained by grinding and then filtration through a 70-micron cell strainer. […] For BM cells, femurs, tibias and humeri were flushed with sterile phosphate buffered saline (PBS), followed by RBC lysis (155 mM NH4Cl, 10 mM NaHCO3, 0.1 mM EDTA), passage through a strainer. Cells were then pelleted by centrifugation at 350×g. Viable cells were counted using a Neubauer chamber and trypan blue exclusion. DCs, MΦs, and CD4^+ T lymphocytes were purified from single cell suspensions of liver, spleen, and lung using CD11c, CD11b, and CD4 (L3T4) microbeads according to the manufacturer's protocol. The purity of the cells was ˜90%-95%.
Tissue cells were suspended in PBS containing 1% BSA. After incubation (15 min, 4° C.) with Fc©R-blocking antibody 2.4G2, cells were stained (45 min, 4° C.) with the following antibodies to identify APCs and T cell: CD4 for T cells; CD11b and F4/80 for Ms; and CD11b and CD11c for DCs. Cells were also stained with the respective isotype antibodies as controls. MΦs were first identified by their typical FSC/SSC pattern, F4/80 and CD11 expression. DCs were identified as CD11c^+CD11b^+ cells. Further, CD40, CD80 CD86 and C5aR1 expression was determined in tissue DCs. T cells were first characterized by their FSC/SSC pattern and CD3 staining. CD3^+T cells were further stained for CD4, CD40L and CD69 expression. A total of […] were acquired for each cell type isolated from the different organs. Specific surface expression was assessed relative to the expression of the corresponding isotype control antibody. Fortessa-I, Fortessa-II, and LSRII flow cytometers were used to characterize the cells. FCS express (version 4; DeNovo Software) was used to analyze the data.
Lipids were extracted from tissues (5 mg; liver, spleen, and lung), purified immune cells, (e.g., MΦ, DCs, and CD4^+T) and GC-specific IgG2a by chloroform and methanol^2, 25, 26. […]

[2] = C5aRA-treated 9V/null mice, i.p. 0.5 mg/kg on five consecutive days, CD68+ immunohistochemistry
[3] = C5aRA-treated vs vehicle-injected 9V/null mice, ESI-LC-MS/MS
[4] = DC/CD4+ T cell co-culture 48 h from C5aRA-treated mice, ELISA
[5] = in response to C5aRA treatment, flow cytometry

B1: Thr Leu Gln Lys Lys Ile Glu Glu Ile Ala Ala Lys Tyr Lys His Ser Val Val Lys Lys Cys Cys Tyr Asp Gly Ala Ala Val Asn Asn Asp Glu Thr Cys Glu Gln Arg Ala Ala Arg Ile Ser Leu Gly Pro Arg Cys Ile Lys Ala … (protein)
chain: TLQKKIEEIAAKYKHSVVKKCCYDGAAVNNDETCEQRAARISLGPRCIKAFTECCVVASQLRANISFKRS
modifications: mutant C5a-(1-66, Cys27A1a) -A8B-Del. 71-73 of human C5a
notes: positions 27 and 68-71 of human C5a mutated and positions 72-74 deleted
C5a-induced effector functions [1]: inhibit | co-stimulatory molecule expression in DCs and CD4+ T cells (C5aR1; C5aRA-treated 9V/null mice): marked reduction | MΦ infiltration of the liver (C5aR1; [2]): substantially reduced | MΦ infiltration of the lung (C5aR1; [2]): substantially reduced | MΦ infiltration of the spleen (C5aR1; [2]): substantially reduced | co-stimulatory molecule expression in DCs and CD4+ T cells (C5aR1; C5aRA-treated 9V/null mice, listed as C5aR antagonist A8^Δ71-73): decreased levels | GCs (C5aR1; C5aRA-treated 9V/null mice, liver and spleen (FIG. 12)): marked reduction | GC storage in liver (C5aR1; [3]): significantly decreased | GC storage in lung (C5aR1; [3]): significantly decreased | GC storage in spleen (C5aR1; [3]): significantly decreased | IFN-γ production (C5aR1; [4]): markedly decreased | IL-1 production (C5aR1; [4]): markedly decreased | IL-6 production (C5aR1; [4]): markedly decreased | IL-17 production (C5aR1; [4]): markedly decreased | TNF-α production (C5aR1; [4]): markedly decreased | pro-inflammatory cytokine (and chemokine) production (C5aR1): marked reduction | pro-inflammatory cytokine (and chemokine) production (C5aR1; listed as C5aR antagonist A8^Δ71-73): less | GC accumulation in MΦs (C5aR1; MΦs of treated 9V/null mice): marked reduction | CD40L expression in CD4+ T cells (C5aR1; [5]): significantly reduced | CD40 expression in pulmonary DCs (C5aR1; [5]): significantly reduced | CD69 expression in CD4+ T cells (C5aR1; [5]): significantly reduced | CD80 expression in pulmonary DCs (C5aR1; [5]): significantly reduced | CD86 expression in pulmonary DCs (C5aR1; [5]): significantly reduced | MΦs, DC and T cells mediated immune inflammation (C5aR1; mouse model of Gaucher disease, i.p.): significantly reduces | loss of CD41+ platelets (C5aR1; treated 9V/null mice): decreased loss | loss of Ter119+ RBCs (C5aR1; treated 9V/null mice): decreased loss
